These results are taken from paper PMC6436938 (Molecular Cell, 2019).

For the assay, the target named is importin β (Impβ) (human, UniProt Q14974 1-876). Briefly: pull-down.
Chain of importin β (Impβ) (Q14974 whole entry): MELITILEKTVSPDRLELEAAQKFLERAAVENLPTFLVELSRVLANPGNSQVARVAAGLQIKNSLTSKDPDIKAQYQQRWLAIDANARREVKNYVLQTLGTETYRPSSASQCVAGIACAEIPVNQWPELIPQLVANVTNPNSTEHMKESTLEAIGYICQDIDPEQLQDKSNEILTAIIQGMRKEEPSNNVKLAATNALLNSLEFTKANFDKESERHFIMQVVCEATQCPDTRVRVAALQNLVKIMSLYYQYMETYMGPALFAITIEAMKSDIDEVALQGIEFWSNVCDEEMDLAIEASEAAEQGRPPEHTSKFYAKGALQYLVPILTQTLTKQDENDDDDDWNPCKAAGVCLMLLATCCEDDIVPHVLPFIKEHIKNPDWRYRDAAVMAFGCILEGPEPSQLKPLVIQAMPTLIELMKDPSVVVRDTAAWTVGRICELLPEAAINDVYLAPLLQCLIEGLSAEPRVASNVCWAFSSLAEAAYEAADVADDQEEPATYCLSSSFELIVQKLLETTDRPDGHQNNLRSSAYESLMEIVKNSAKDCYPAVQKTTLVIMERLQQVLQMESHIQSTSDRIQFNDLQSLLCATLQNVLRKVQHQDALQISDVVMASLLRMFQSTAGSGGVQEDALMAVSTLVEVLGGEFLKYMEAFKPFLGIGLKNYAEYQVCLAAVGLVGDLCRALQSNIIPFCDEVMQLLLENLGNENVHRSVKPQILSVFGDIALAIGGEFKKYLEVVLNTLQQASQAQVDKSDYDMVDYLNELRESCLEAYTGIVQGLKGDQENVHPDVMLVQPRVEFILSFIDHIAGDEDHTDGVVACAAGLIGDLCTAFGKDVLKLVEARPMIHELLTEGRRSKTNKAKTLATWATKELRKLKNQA

B1: His-tagged H1.0 C-terminal domain (H1C, aas 96–194) (domain or fragment, human, UniProt P07305 96-194, looked up)
chain: AKSDEPKKSVAFKKTKKEIKKVATPKKASKPKKAASKAPTKKPKATPVKKAKKKLAATPKKAKKPKTVKAKPVKASKPKKAKPVKPKAKSSAKRAGKKK
Regarding B1, the binding result is listed as “binds”.

B2: Nsp1_FG (497–608), construct containing five FG repeats from nucleoporin Nsp1 (domain or fragment)
chain: not shown
Turning to B2, the binding result was “binds”.
